In patent US20170101466A1:

How the values were obtained:
[1] = molecular target: soluble human BLyS (human) (UniProt Q9Y275); assay: DELFIA competition, Eu-hBLyS binding to coated BR3
[2] = molecular target: soluble human BLyS (human) (UniProt Q9Y275); assay: DELFIA competition, Eu-hBLyS binding to coated TACI
[3] = molecular target: soluble mouse BLyS (mouse) (UniProt Q9WU72); assay: DELFIA competition, Eu-mBLyS binding to coated BCMA
[4] = molecular target: soluble human BLyS (human) (UniProt Q9Y275); assay: DELFIA competition, Eu-hBLyS binding to coated BCMA
[5] = molecular target: soluble mouse BLyS (mouse) (UniProt Q9WU72); assay: DELFIA competition, Eu-mBLyS binding to coated BR3
[6] = molecular target: soluble mouse BLyS (mouse) (UniProt Q9WU72); assay: DELFIA competition, Eu-mBLyS binding to coated TACI

Row | Substance | IC50 [1] | IC50 [2] | IC50 [3] | IC50 [4] | IC50 [5] | IC50 [6]
1 | TACI-Ig (Fc fusion) | 0.159 nM | 0.0127 nM | 0.784 nM | 0.112 nM | 0.515 nM | 0.0158 nM
2 | AMG623 | 0.0093 nM | < 0.0003 nM | 0.0115 nM | < 0.0003 nM | 0.147 nM | < 0.0003 nM
